± gives the uncertainty stated by the source.
B1: Arginine-glutamic acid dipeptide repeats protein, residues 502 to 543; numbered along this chain, Q9P2R6 (parent)
chain: LKGYACRHCFTTTSKDWHHGGRENILLCTDCRIHFKKYGELP

Variants of: B1
Experiment: abundance fitness (aPCA) (normalised: wild type 0, dead -1); higher = more abundant; growth selection in yeast, the domain comes from the species named
Settings: Homo sapiens

Row | Variant | abundance fitness
1 | LKGYACRHCFTTTSKDWHHGGRENISLCTDCRIHFKKYGELP | -0.36 ± 0.046
2 | LKGYACRHCFTTTSKDWHHGGRENIFLCTDCRIHFKKYGELP | -0.354 ± 0.11
3 | LKGYACRHCFTTTSKDWHHGGRENIALCTDCRIHFKKYGELP | -0.311 ± 0.036
4 | LKGYACRHCFTTTSKDWHHGGRENIDLCTDCRIHFKKYGELP | -0.244 ± 0.057
5 | LKGYACRHCFTTTSKDWHHGGRENIVLCTDCRIHFKKYGELP | -0.18 ± 0.038
6 | LKGYACRHCFTTTSKDWHHGGRENITLCTDCRIHFKKYGELP | -0.05 ± 0.062
7 | LKGYACRHCFTTTSKDWHHGGRENIQLCTDCRIHFKKYGELP | -0.376 ± 0.05
8 | LKGYACRHCFTTTSKDWHHGGRENIGLCTDCRIHFKKYGELP | -0.307 ± 0.04
9 | LKGYACRHCFTTTSKDWHHGGRENIWLCTDCRIHFKKYGELP | -0.188 ± 0.038
10 | LKGYACRHCFTTTSKDWHHGGRENIKLCTDCRIHFKKYGELP | -0.268 ± 0.062
11 | LKGYACRHCFTTTSKDWHHGGRENIMLCTDCRIHFKKYGELP | 0.023 ± 0.076
12 | LKGYACRHCFTTTSKDWHHGGRELILLCTDCRIHFKKYGELP | -0.191 ± 0.044
13 | LKGYACRHCFTTTSKDWHHGGREPILLCTDCRIHFKKYGELP | -0.261 ± 0.049
14 | LKGYACRHCFTTTSKDWHHGGRERILLCTDCRIHFKKYGELP | -0.146 ± 0.034
15 | LKGYACRHCFTTTSKDWHHGGREWILLCTDCRIHFKKYGELP | -0.189 ± 0.033
16 | LKGYACRHCFTTTSKDWHHGGREFILLCTDCRIHFKKYGELP | -0.242 ± 0.062
17 | LKGYACRHCFTTTSKDWHHGGREVILLCTDCRIHFKKYGELP | -0.297 ± 0.048
18 | LKGYACRHCFTTTSKDWHHGGREIILLCTDCRIHFKKYGELP | -0.299 ± 0.086
19 | LKGYACRHCFTTTSKDWHHGGRETILLCTDCRIHFKKYGELP | -0.239 ± 0.046
20 | LKGYACRHCFTTTSKDWHHGGREMILLCTDCRIHFKKYGELP | -0.107 ± 0.042

Row | Variant | abundance fitness
21 | LKGYACRHCFTTTSKDWHHGGREYILLCTDCRIHFKKYGELP | -0.249 ± 0.067
22 | LKGYACRHCFTTTSKDWHHGGRECILLCTDCRIHFKKYGELP | -0.349 ± 0.086
23 | LKGYACRHCFTTTSKDWHHGGREGILLCTDCRIHFKKYGELP | -0.026 ± 0.034
24 | LKGYACRHCFTTTSKDWHHGGRESILLCTDCRIHFKKYGELP | 0 ± 0.035
25 | LKGYACRHCFTTTSKDWHHGGREEILLCTDCRIHFKKYGELP | -0.105 ± 0.041
26 | LKGYACRHCFTTTSKDWHHGGREHILLCTDCRIHFKKYGELP | -0.094 ± 0.067
27 | LKGYACRHCFTTTSKDWHHGGREKILLCTDCRIHFKKYGELP | -0.157 ± 0.059
28 | LKGYACRHCFTTTSKDWHHGGREAILLCTDCRIHFKKYGELP | -0.146 ± 0.035
29 | LKGYACRHCFTTTSKDWHHGGRENILLWTDCRIHFKKYGELP | -1 ± 0.12
30 | LKGYACRHCFTTTSKDWHHGGRENILLGTDCRIHFKKYGELP | -0.798 ± 0.046
31 | LKGYACRHCFTTTSKDWHHGGRENILLKTDCRIHFKKYGELP | -0.841 ± 0.11
32 | LKGYACRHCFTTTSKDWHHGGRENILLVTDCRIHFKKYGELP | -0.851 ± 0.058
33 | LKGYACRHCFTTTSKDWHHGGRENILLRTDCRIHFKKYGELP | -0.921 ± 0.045
34 | LKGYACRHCFTTTSKDWHHGGRENILLPTDCRIHFKKYGELP | -0.853 ± 0.26
35 | LKGYACRHCFTTTSKDWHHGGRENILLQTDCRIHFKKYGELP | -0.746 ± 0.059
36 | LKGYACRHCFTTTSKDWHHGGRENILLSTDCRIHFKKYGELP | -0.789 ± 0.058
37 | LKGYACRHCFTTTSKDWHHGGRENILLHTDCRIHFKKYGELP | -0.872 ± 0.18
38 | LKGYACRHCFTTTSKDWHHGGRENILLETDCRIHFKKYGELP | -0.685 ± 0.058
39 | LKGYACRHCFTTTSKDWHHGGRENILLYTDCRIHFKKYGELP | -0.617 ± 0.13
40 | LKGYACRHCFTTTSKDWHHGGRENILLFTDCRIHFKKYGELP | -0.789 ± 0.17

Row | Variant | abundance fitness
41 | LKGYACRHCFTTTSKDWHHGGRENILLLTDCRIHFKKYGELP | -1.13 ± 0.11
42 | LKGYACRHCFTTTSKDWHHGGRENILLATDCRIHFKKYGELP | -0.873 ± 0.052
43 | LKGYACRHCFTTTSKDWHHGGRENILLMTDCRIHFKKYGELP | -1.31 ± 0.17
44 | LKGYACRHCFTTTSKDWHHGGRENILGCTDCRIHFKKYGELP | -0.494 ± 0.039
45 | LKGYACRHCFTTTSKDWHHGGRENILHCTDCRIHFKKYGELP | -0.086 ± 0.15
46 | LKGYACRHCFTTTSKDWHHGGRENILQCTDCRIHFKKYGELP | -0.498 ± 0.069
47 | LKGYACRHCFTTTSKDWHHGGRENILYCTDCRIHFKKYGELP | -0.301 ± 0.099
48 | LKGYACRHCFTTTSKDWHHGGRENILICTDCRIHFKKYGELP | -0.172 ± 0.058
49 | LKGYACRHCFTTTSKDWHHGGRENILVCTDCRIHFKKYGELP | -0.276 ± 0.034
50 | LKGYACRHCFTTTSKDWHHGGRENILDCTDCRIHFKKYGELP | -0.541 ± 0.081
51 | LKGYACRHCFTTTSKDWHHGGRENILPCTDCRIHFKKYGELP | -0.396 ± 0.059
52 | LKGYACRHCFTTTSKDWHHGGRENILTCTDCRIHFKKYGELP | -0.294 ± 0.059
53 | LKGYACRHCFTTTSKDWHHGGRENILCCTDCRIHFKKYGELP | -0.217 ± 0.086
54 | LKGYACRHCFTTTSKDWHHGGRENILECTDCRIHFKKYGELP | -0.318 ± 0.044
55 | LKGYACRHCFTTTSKDWHHGGRENILWCTDCRIHFKKYGELP | -0.259 ± 0.035
56 | LKGYACRHCFTTTSKDWHHGGRENILRCTDCRIHFKKYGELP | -0.554 ± 0.035
57 | LKGYACRHCFTTTSKDWHHGGRENILMCTDCRIHFKKYGELP | -0.209 ± 0.044
58 | LKGYACRHCFTTTSKDWHHGGRENILACTDCRIHFKKYGELP | -0.405 ± 0.036
59 | LKGYACRHCFTTTSKDWHHGGRENILFCTDCRIHFKKYGELP | -0.444 ± 0.07
60 | LKGYACRHCFTTTSKDWHHGGRENILKCTDCRIHFKKYGELP | -0.511 ± 0.045

Source: the Human Domainome abundance scans (Beltran et al. 2025)
